Positions count from the first letter of the chain named. In names and notes the source's numbering stands.
How the values were obtained:
[1] = tested on: steviol glycoside; test: steviol glycoside bioconversion by E. coli expressing individual mutations of UGT SEQ ID NO: 14; assay type: cell-based; settings: fold improvement of % conversion vs parent UGT SEQ ID NO: 14; stevia leaf extract and glucose fed; 37° C., 48 hr
Experimental: Fold improvement is with respect to % steviol glycoside conversion of the parent UGT enzyme of SEQ ID NO: 14. The UGT enzyme of SEQ ID NO: 15 has the following mutations from SEQ ID NO: 14: ins_A2_T3_RR, H59P, A238E, L417F. Stevia leaf extract and glucose were fed to the bioconversion strains. Bioconversion took place at 37° C. for 48 hr. Data were quantified by reverse phase LC DAD to quantify conversion of steviol glycosides.
Fold improvement (FI) is with respect to % steviol glycoside conversion.

[2] = tested on: Mog. IIE or Mog. IE; test: branched glycosylation reactions by cells expressing UGT enzymes; assay type: cell-based, E. coli; settings: Mog. IIE or Mog. IE fed; 37° C., 48 hr; LC-MS/MS
Experimental: Mog. IIE or Mog. IE was fed to cells expressing various UGT enzymes. Reactions were incubated at 37° C. for 48 hr. Products were quantified by LC-MS/MS with authentic standards of each compound. “Indirect” evidence means that consumption of substrate was observed.

B1: L203I: mutation to UGT enzyme of SEQ ID NO: 14 (protein)
chain: MATKNSSGMSLAERFWLTLSRSSLVVGRSCVEFEPETVPLLSTLRGKPITFLGLMPPLHEGRREDGEDATVRWLDAQPAKSVVYVALGSEVPLGVEKVHELALGLELAGTRFLWALRKPTGVSDADLLPAGFEERTRGRGVVATRWVPQMSILAHAAVGAFLTHCGWNSTIEGLMFGHPLIMLPITGDQGPNARLIEAKNAGIQVARNDGDGSFDREGVAAAIRAVAVEEESSKVFQAKAKKLQEIVADMACHERYIDGFIQQLRSYKDDSGYSSSYAAAAGMHVVICPWLAFGHLLPCLDLAQRLASRGHRVSFVSTPRNISRLPPVRPALAPLVAFVALPLPRVEGLPDGAESTNDVPHDRPDMVELHRRAFDGLAAPFSEFLGTACADWVIVDSFHHWAAAAALEHKVPCAMMLLGSAEMIASIADERLEHAETESPAAAGQGRPAAAPTFEVARMKLIR
[1]
  FI %Stevioside→rebE: 1.6
  FI %rebA→rebD: 1.5

B2: S151R: mutation to UGT enzyme of SEQ ID NO: 14 (protein)
chain: B1 chain with S151R, I203L
[1]
  FI %Stevioside→rebE: 1.6
  FI %rebA→rebD: 1.5

B3: S123D: mutation to UGT enzyme of SEQ ID NO: 14 (protein)
chain: B1 chain with S123D, I203L
[1]
  FI %Stevioside→rebE: 1.7
  FI %rebA→rebD: 1.5

B4: T453M: mutation to UGT enzyme of SEQ ID NO: 14 (protein)
chain: B1 chain with I203L, T453M
[1]
  FI %Stevioside→rebE: 1.7
  FI %rebA→rebD: 1.5

B5: G94T: mutation to UGT enzyme of SEQ ID NO: 14 (protein)
chain: B1 chain with G94T, I203L
[1]
  FI %Stevioside→rebE: 1.6
  FI %rebA→rebD: 1.4

B6: T186M: mutation to UGT enzyme of SEQ ID NO: 14 (protein)
chain: B1 chain with T186M, I203L
[1]
  FI %Stevioside→rebE: 1.5
  FI %rebA→rebD: 1.4

B7: L58S: mutation to UGT enzyme of SEQ ID NO: 14 (protein)
chain: B1 chain with L58S, I203L
[1]
  FI %Stevioside→rebE: 1.5
  FI %rebA→rebD: 1.4

B8: V336I_F338L: mutation to UGT enzyme of SEQ ID NO: 14 (protein)
chain: B1 chain with I203L, V336I, F338L
[1]
  FI %Stevioside→rebE: 1.5
  FI %rebA→rebD: 1.4

B9: F51W: mutation to UGT enzyme of SEQ ID NO: 14 (protein)
chain: B1 chain with F51W, I203L
[1]
  FI %Stevioside→rebE: 1.7
  FI %rebA→rebD: 1.4

B10: M250D_A251E_C252V: mutation to UGT enzyme of SEQ ID NO: 14 (protein)
chain: B1 chain with I203L, M250D, A251E, C252V
[1]
  FI %Stevioside→rebE: 1.5
  FI %rebA→rebD: 1.4

B11: ins_A2_T3_RR: SEQ ID NO: 14 with insertion of Arg-Arg between A2 and T3 (protein)
chain: MARRTKNSSGMSLAERFWLTLSRSSLVVGRSCVEFEPETVPLLSTLRGKPITFLGLMPPLHEGRREDGEDATVRWLDAQPAKSVVYVALGSEVPLGVEKVHELALGLELAGTRFLWALRKPTGVSDADLLPAGFEERTRGRGVVATRWVPQMSILAHAAVGAFLTHCGWNSTIEGLMFGHPLIMLPITGDQGPNARLIEAKNAGLQVARNDGDGSFDREGVAAAIRAVAVEEESSKVFQAKAKKLQEIVADMACHERYIDGFIQQLRSYKDDSGYSSSYAAAAGMHVVICPWLAFGHLLPCLDLAQRLASRGHRVSFVSTPRNISRLPPVRPALAPLVAFVALPLPRVEGLPDGAESTNDVPHDRPDMVELHRRAFDGLAAPFSEFLGTACADWVIVDSFHHWAAAAALEHKVPCAMMLLGSAEMIASIADERLEHAETESPAAAGQGRPAAAPTFEVARMKLIR
[1]
  FI %Stevioside→rebE: 2.4
  FI %rebA→rebD: 2.0

B12: A79P: mutation to UGT enzyme of SEQ ID NO: 14 (protein)
chain: B1 chain with A79P, I203L
[1]
  FI %Stevioside→rebE: 1.4
  FI %rebA→rebD: 1.3

B13: W401F: mutation to UGT enzyme of SEQ ID NO: 14 (protein)
chain: B1 chain with I203L, W401F
[1]
  FI %Stevioside→rebE: 1.3
  FI %rebA→rebD: 1.3

B14: S323A: mutation to UGT enzyme of SEQ ID NO: 14 (protein)
chain: B1 chain with I203L, S323A
[1]
  FI %Stevioside→rebE: 1.3
  FI %rebA→rebD: 1.3

B15: A130D: mutation to UGT enzyme of SEQ ID NO: 14 (protein)
chain: B1 chain with A130D, I203L
[1]
  FI %Stevioside→rebE: 1.4
  FI %rebA→rebD: 1.3

B16: S42E: mutation to UGT enzyme of SEQ ID NO: 14 (protein)
chain: B1 chain with S42E, I203L
[1]
  FI %Stevioside→rebE: 1.8
  FI %rebA→rebD: 1.3

B17: H400Y: mutation to UGT enzyme of SEQ ID NO: 14 (protein)
chain: B1 chain with I203L, H400Y
[1]
  FI %Stevioside→rebE: 1.2
  FI %rebA→rebD: 1.3

B18: S266R: mutation to UGT enzyme of SEQ ID NO: 14 (protein)
chain: B1 chain with I203L, S266R
[1]
  FI %Stevioside→rebE: 1.4
  FI %rebA→rebD: 1.3

B19: P56A: mutation to UGT enzyme of SEQ ID NO: 14 (protein)
chain: B1 chain with P56A, I203L
[1]
  FI %Stevioside→rebE: 1.5
  FI %rebA→rebD: 1.3

B20: SEQ ID NO: 76: CeUGT_1,6.2 (Coffea eugenioides) (protein, listed as Coffea sp.)
chain: MAENHATFNVLMLPWLAHGHVSPYLELAKKLTARNFNVYLCSSPATLSSVRSKLTEKFSQSIHLVELHLPKLPELPAEYHTTNGLPPHLMPTLKDAFDMAKPNFCNVLKSLKPDLLIYDLLQPWAPEAASAFNIPAVVFISSSATMTSFGLHFFKNPGTKYPYGNAIFYRDYESVFVENLTRRDRDTYRVINCMERSSKIILIKGFNEIEGKYFDYFSCLTGKKVVPVGPLVQDPVLDDEDCEIMQWLNKKEKVSTVFVSFGSEYFLSKKDMEEIAHGLELSNVDFIWVVRFPKGENIVIEETLPKGFFERVGERGLVVNGWAPQAKILTHPNVGGFVSHCGWNSVMESMKFGLPIIAMPMHLDQPINARLIEEVGAGVEVLRDSKGKLHRERMAETINKVMKEASGESVRKKARELQEKMDLKGDEEIDDVVKELVQLCATKNKRNGLHYY
[2]
  C3 1-2: No
  C3 1-6: Yes
  C24 1-2: No
  C24 1-6: Yes

B21: SEQ ID NO: 75: CeUGT_1,6 (Coffea eugenioides) (protein, listed as Coffea sp.)
chain: MAENHATFNVLMLPWLAHGHVSPYLELAKKLTARNFNVYLCSSPATLSSVRSKLTEKFSQSIHLVELHLPKLPELPAEYHTTNGLPPHLMPTLKDAFDMAEPNFCNVLKSLKPDLLIYDLLQPWAPEAASAFNIPAVVFISSSATMTSFGLHFFKNPGTKYPYGNTIFYRDYESVFVENLKRRDRDTYRVVNCMERSSKIILIKGFKEIEGKYFDYFSCLTGKKVVPVGPLVQDPVLDDEDCRIMQWLNKKEKGSTVFVSFGSEYFLSKEDMEEIAHGLELSNVDFIWVVRFPKGENIVIEETLPKGFFERVGERGLVVNGWAPQAKILTHPNVGGFVSHCGWNSVMESMKFGLPIIAMPMHLDQPINARLIEEVGAGVEVLRDSKGKLHRERMAETINKVTKEASGESVRKKARELQEKLELKGDEEIDDVVKELVQLCATKNKRNGLHYN
[2]
  C3 1-2: Yes
  C3 1-6: Yes
  C24 1-2: Yes
  C24 1-6: Yes
